Each binder was assayed against Human CD3eg linker (human) (assay: SPR; fold vs parent H183/L072).
Human CD3eg linker (human), sequence (chain, as listed by the source limits assumed): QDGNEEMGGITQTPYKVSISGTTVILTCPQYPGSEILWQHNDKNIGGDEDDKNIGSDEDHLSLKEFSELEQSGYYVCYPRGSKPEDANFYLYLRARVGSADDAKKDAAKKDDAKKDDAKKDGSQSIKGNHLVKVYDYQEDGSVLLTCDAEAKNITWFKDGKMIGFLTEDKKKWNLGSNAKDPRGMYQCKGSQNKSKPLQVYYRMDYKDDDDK

| Binder | fold change of affinity [fold] |
| --- | --- |
| H183/L072 VL K50L (antibody, name in Kabat numbering, V domains shown) VH: QVQLVESGGGLVQPGRSLRLSCAASGFTFSNAWMHWVRQAPGKGLEWVAQIKDKGNAYAAYYAPSVKGRFTISRDDSKNSIYLQMNSLKTEDTAVYYCHYVHYASASTVLPAFGVDAWGQGTTVTVSS VL: DIVMTQSPLSLPVTPGEPASISCQASQELVHMNRNTYLHWYQQKPGQAPRLLIYLVSNRFPGVPDRFSGSGSGTDFTLKISRVEAEDVGVYYCAQGTSVPFTFGQGTKLEIK | 0 |
| H183/L072 VL A89P (antibody, name in Kabat numbering, V domains shown) VH: QVQLVESGGGLVQPGRSLRLSCAASGFTFSNAWMHWVRQAPGKGLEWVAQIKDKGNAYAAYYAPSVKGRFTISRDDSKNSIYLQMNSLKTEDTAVYYCHYVHYASASTVLPAFGVDAWGQGTTVTVSS VL: DIVMTQSPLSLPVTPGEPASISCQASQELVHMNRNTYLHWYQQKPGQAPRLLIYKVSNRFPGVPDRFSGSGSGTDFTLKISRVEAEDVGVYYCPQGTSVPFTFGQGTKLEIK | 0 |
| H183/L072 VL T97P (antibody, name in Kabat numbering, V domains shown) VH: QVQLVESGGGLVQPGRSLRLSCAASGFTFSNAWMHWVRQAPGKGLEWVAQIKDKGNAYAAYYAPSVKGRFTISRDDSKNSIYLQMNSLKTEDTAVYYCHYVHYASASTVLPAFGVDAWGQGTTVTVSS VL: DIVMTQSPLSLPVTPGEPASISCQASQELVHMNRNTYLHWYQQKPGQAPRLLIYKVSNRFPGVPDRFSGSGSGTDFTLKISRVEAEDVGVYYCAQGTSVPFPFGQGTKLEIK | 0 |
| H183/L072 VL G91M (antibody, name in Kabat numbering, V domains shown) VH: QVQLVESGGGLVQPGRSLRLSCAASGFTFSNAWMHWVRQAPGKGLEWVAQIKDKGNAYAAYYAPSVKGRFTISRDDSKNSIYLQMNSLKTEDTAVYYCHYVHYASASTVLPAFGVDAWGQGTTVTVSS VL: DIVMTQSPLSLPVTPGEPASISCQASQELVHMNRNTYLHWYQQKPGQAPRLLIYKVSNRFPGVPDRFSGSGSGTDFTLKISRVEAEDVGVYYCAQMTSVPFTFGQGTKLEIK | 0 |
| H183/L072 VL Q90M (antibody, name in Kabat numbering, V domains shown) VH: QVQLVESGGGLVQPGRSLRLSCAASGFTFSNAWMHWVRQAPGKGLEWVAQIKDKGNAYAAYYAPSVKGRFTISRDDSKNSIYLQMNSLKTEDTAVYYCHYVHYASASTVLPAFGVDAWGQGTTVTVSS VL: DIVMTQSPLSLPVTPGEPASISCQASQELVHMNRNTYLHWYQQKPGQAPRLLIYKVSNRFPGVPDRFSGSGSGTDFTLKISRVEAEDVGVYYCAMGTSVPFTFGQGTKLEIK | 0 |
| H183/L072 VL S93P (antibody, name in Kabat numbering, V domains shown) VH: QVQLVESGGGLVQPGRSLRLSCAASGFTFSNAWMHWVRQAPGKGLEWVAQIKDKGNAYAAYYAPSVKGRFTISRDDSKNSIYLQMNSLKTEDTAVYYCHYVHYASASTVLPAFGVDAWGQGTTVTVSS VL: DIVMTQSPLSLPVTPGEPASISCQASQELVHMNRNTYLHWYQQKPGQAPRLLIYKVSNRFPGVPDRFSGSGSGTDFTLKISRVEAEDVGVYYCAQGTPVPFTFGQGTKLEIK | 0 |
| H183/L072 VL K50P (antibody, name in Kabat numbering, V domains shown) VH: QVQLVESGGGLVQPGRSLRLSCAASGFTFSNAWMHWVRQAPGKGLEWVAQIKDKGNAYAAYYAPSVKGRFTISRDDSKNSIYLQMNSLKTEDTAVYYCHYVHYASASTVLPAFGVDAWGQGTTVTVSS VL: DIVMTQSPLSLPVTPGEPASISCQASQELVHMNRNTYLHWYQQKPGQAPRLLIYPVSNRFPGVPDRFSGSGSGTDFTLKISRVEAEDVGVYYCAQGTSVPFTFGQGTKLEIK | 0 |
| H183/L072 VL F96M (antibody, name in Kabat numbering, V domains shown) VH: QVQLVESGGGLVQPGRSLRLSCAASGFTFSNAWMHWVRQAPGKGLEWVAQIKDKGNAYAAYYAPSVKGRFTISRDDSKNSIYLQMNSLKTEDTAVYYCHYVHYASASTVLPAFGVDAWGQGTTVTVSS VL: DIVMTQSPLSLPVTPGEPASISCQASQELVHMNRNTYLHWYQQKPGQAPRLLIYKVSNRFPGVPDRFSGSGSGTDFTLKISRVEAEDVGVYYCAQGTSVPMTFGQGTKLEIK | 0 |
| H183/L072 VL G91P (antibody, name in Kabat numbering, V domains shown) VH: QVQLVESGGGLVQPGRSLRLSCAASGFTFSNAWMHWVRQAPGKGLEWVAQIKDKGNAYAAYYAPSVKGRFTISRDDSKNSIYLQMNSLKTEDTAVYYCHYVHYASASTVLPAFGVDAWGQGTTVTVSS VL: DIVMTQSPLSLPVTPGEPASISCQASQELVHMNRNTYLHWYQQKPGQAPRLLIYKVSNRFPGVPDRFSGSGSGTDFTLKISRVEAEDVGVYYCAQPTSVPFTFGQGTKLEIK | 0 |
| H183/L072 VL P95L (antibody, name in Kabat numbering, V domains shown) VH: QVQLVESGGGLVQPGRSLRLSCAASGFTFSNAWMHWVRQAPGKGLEWVAQIKDKGNAYAAYYAPSVKGRFTISRDDSKNSIYLQMNSLKTEDTAVYYCHYVHYASASTVLPAFGVDAWGQGTTVTVSS VL: DIVMTQSPLSLPVTPGEPASISCQASQELVHMNRNTYLHWYQQKPGQAPRLLIYKVSNRFPGVPDRFSGSGSGTDFTLKISRVEAEDVGVYYCAQGTSVLFTFGQGTKLEIK | 0 |
| H183/L072 VL Q90P (antibody, name in Kabat numbering, V domains shown) VH: QVQLVESGGGLVQPGRSLRLSCAASGFTFSNAWMHWVRQAPGKGLEWVAQIKDKGNAYAAYYAPSVKGRFTISRDDSKNSIYLQMNSLKTEDTAVYYCHYVHYASASTVLPAFGVDAWGQGTTVTVSS VL: DIVMTQSPLSLPVTPGEPASISCQASQELVHMNRNTYLHWYQQKPGQAPRLLIYKVSNRFPGVPDRFSGSGSGTDFTLKISRVEAEDVGVYYCAPGTSVPFTFGQGTKLEIK | 0 |
| H183/L072 VL F96P (antibody, name in Kabat numbering, V domains shown) VH: QVQLVESGGGLVQPGRSLRLSCAASGFTFSNAWMHWVRQAPGKGLEWVAQIKDKGNAYAAYYAPSVKGRFTISRDDSKNSIYLQMNSLKTEDTAVYYCHYVHYASASTVLPAFGVDAWGQGTTVTVSS VL: DIVMTQSPLSLPVTPGEPASISCQASQELVHMNRNTYLHWYQQKPGQAPRLLIYKVSNRFPGVPDRFSGSGSGTDFTLKISRVEAEDVGVYYCAQGTSVPPTFGQGTKLEIK | 0 |
| H183/L072 VL S52P (antibody, name in Kabat numbering, V domains shown) VH: QVQLVESGGGLVQPGRSLRLSCAASGFTFSNAWMHWVRQAPGKGLEWVAQIKDKGNAYAAYYAPSVKGRFTISRDDSKNSIYLQMNSLKTEDTAVYYCHYVHYASASTVLPAFGVDAWGQGTTVTVSS VL: DIVMTQSPLSLPVTPGEPASISCQASQELVHMNRNTYLHWYQQKPGQAPRLLIYKVPNRFPGVPDRFSGSGSGTDFTLKISRVEAEDVGVYYCAQGTSVPFTFGQGTKLEIK | 0 |

Other lines, results leading:

| fold change of affinity [fold] | Binder |
| --- | --- |
| 0 | H183/L072 VL G91L (antibody, name in Kabat numbering, V domains shown) VH: QVQLVESGGGLVQPGRSLRLSCAASGFTFSNAWMHWVRQAPGKGLEWVAQIKDKGNAYAAYYAPSVKGRFTISRDDSKNSIYLQMNSLKTEDTAVYYCHYVHYASASTVLPAFGVDAWGQGTTVTVSS VL: DIVMTQSPLSLPVTPGEPASISCQASQELVHMNRNTYLHWYQQKPGQAPRLLIYKVSNRFPGVPDRFSGSGSGTDFTLKISRVEAEDVGVYYCAQLTSVPFTFGQGTKLEIK |
| 0 | H183/L072 VL F96L (antibody, name in Kabat numbering, V domains shown) VH: QVQLVESGGGLVQPGRSLRLSCAASGFTFSNAWMHWVRQAPGKGLEWVAQIKDKGNAYAAYYAPSVKGRFTISRDDSKNSIYLQMNSLKTEDTAVYYCHYVHYASASTVLPAFGVDAWGQGTTVTVSS VL: DIVMTQSPLSLPVTPGEPASISCQASQELVHMNRNTYLHWYQQKPGQAPRLLIYKVSNRFPGVPDRFSGSGSGTDFTLKISRVEAEDVGVYYCAQGTSVPLTFGQGTKLEIK |
| 0 | H183/L072 VL V51P (antibody, name in Kabat numbering, V domains shown) VH: QVQLVESGGGLVQPGRSLRLSCAASGFTFSNAWMHWVRQAPGKGLEWVAQIKDKGNAYAAYYAPSVKGRFTISRDDSKNSIYLQMNSLKTEDTAVYYCHYVHYASASTVLPAFGVDAWGQGTTVTVSS VL: DIVMTQSPLSLPVTPGEPASISCQASQELVHMNRNTYLHWYQQKPGQAPRLLIYKPSNRFPGVPDRFSGSGSGTDFTLKISRVEAEDVGVYYCAQGTSVPFTFGQGTKLEIK |
| 0 | H183/L072 VL P95M (antibody, name in Kabat numbering, V domains shown) VH: QVQLVESGGGLVQPGRSLRLSCAASGFTFSNAWMHWVRQAPGKGLEWVAQIKDKGNAYAAYYAPSVKGRFTISRDDSKNSIYLQMNSLKTEDTAVYYCHYVHYASASTVLPAFGVDAWGQGTTVTVSS VL: DIVMTQSPLSLPVTPGEPASISCQASQELVHMNRNTYLHWYQQKPGQAPRLLIYKVSNRFPGVPDRFSGSGSGTDFTLKISRVEAEDVGVYYCAQGTSVMFTFGQGTKLEIK |
| 0 | H183/L072 VL T92P (antibody, name in Kabat numbering, V domains shown) VH: QVQLVESGGGLVQPGRSLRLSCAASGFTFSNAWMHWVRQAPGKGLEWVAQIKDKGNAYAAYYAPSVKGRFTISRDDSKNSIYLQMNSLKTEDTAVYYCHYVHYASASTVLPAFGVDAWGQGTTVTVSS VL: DIVMTQSPLSLPVTPGEPASISCQASQELVHMNRNTYLHWYQQKPGQAPRLLIYKVSNRFPGVPDRFSGSGSGTDFTLKISRVEAEDVGVYYCAQGPSVPFTFGQGTKLEIK |
| 0 | H183/L072 VL Q90L (antibody, name in Kabat numbering, V domains shown) VH: QVQLVESGGGLVQPGRSLRLSCAASGFTFSNAWMHWVRQAPGKGLEWVAQIKDKGNAYAAYYAPSVKGRFTISRDDSKNSIYLQMNSLKTEDTAVYYCHYVHYASASTVLPAFGVDAWGQGTTVTVSS VL: DIVMTQSPLSLPVTPGEPASISCQASQELVHMNRNTYLHWYQQKPGQAPRLLIYKVSNRFPGVPDRFSGSGSGTDFTLKISRVEAEDVGVYYCALGTSVPFTFGQGTKLEIK |
| 0 | H183/L072 VL K50M (antibody, name in Kabat numbering, V domains shown) VH: QVQLVESGGGLVQPGRSLRLSCAASGFTFSNAWMHWVRQAPGKGLEWVAQIKDKGNAYAAYYAPSVKGRFTISRDDSKNSIYLQMNSLKTEDTAVYYCHYVHYASASTVLPAFGVDAWGQGTTVTVSS VL: DIVMTQSPLSLPVTPGEPASISCQASQELVHMNRNTYLHWYQQKPGQAPRLLIYMVSNRFPGVPDRFSGSGSGTDFTLKISRVEAEDVGVYYCAQGTSVPFTFGQGTKLEIK |
| 0 | H183/L072 VL A89L (antibody, name in Kabat numbering, V domains shown) VH: QVQLVESGGGLVQPGRSLRLSCAASGFTFSNAWMHWVRQAPGKGLEWVAQIKDKGNAYAAYYAPSVKGRFTISRDDSKNSIYLQMNSLKTEDTAVYYCHYVHYASASTVLPAFGVDAWGQGTTVTVSS VL: DIVMTQSPLSLPVTPGEPASISCQASQELVHMNRNTYLHWYQQKPGQAPRLLIYKVSNRFPGVPDRFSGSGSGTDFTLKISRVEAEDVGVYYCLQGTSVPFTFGQGTKLEIK |
